Test: yeast display, Sf9 membrane polyspecificity reagent, FACS + sequencing; frameworks hold sequencing errors
Outline: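 Genes from sorted yeast were amplified by colony PCR, read by MiSeq 2 × 250 sequencing and filtered on CDR length. These cells carried a synthetic nanobody library in Saccharomyces cerevisiae BJ5465 and were sorted by FACS into low and high (top ~1%) gates on anti-HA and streptavidin fluorescence. Polyreactivity is labelled according to the gate of origin.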

Row | Sequence | polyreactivity (PSR sort gate)
1 | QVQLVESGGGLVQAGGSLRLSCAASGFIFRNYAMGWYRQAPGKERELVAVISQRGGSTYYADSVKGRFTSSRDNAKNTVYVQMNSLKPEDTAVYYGAKRKDYNRRGYDYWGQGTQVTVSS | high polyreactivity
2 | QVQLVESGGGLVQAGGSLRLSCAASGSTFQFYAMGWYRQAPGKERELVAAISVSGDRTYYADSVKARFTISRDNAKNTVYLQMNSLKPEDSAVYYCAARYGPFKRRFDYWGLGTQVTVSS | high polyreactivity
3 | HVQHVESAVGLVQAGGRLRLSCAASGIIFRGNVMGWYIPAPGKERELVAAISGSGGRTYYADSVKGRFTISRDNAKNTVYLLMNSLKPEDTAVYYCAVSGTRTIWGISYRMYYWGQGTQVTVSS | high polyreactivity
4 | QVQLVESCGGLVQAGGSLRLSCAASGIIFSVNAMGWSRQAPGKERELVAAITIGGSTYYADSVKGRFTISRDNAKNTVYLQMNSLKPEDTAVYYCAADEYGPHTFSPESDSWGQGTQVTVSS | low polyreactivity
5 | QVQLVESGGGLVQAGGSLRLSCAASGSTFLINAMGWYRQAPGKEREFVAAITSSGGTTYYADSVKGRFTISRDNAKNTVYLQMNSLKPEDTAVYYCAAVSRSRREKKFDYWGQGTQVTVSS | low polyreactivity
6 | QVQLVESGGGLFQAGGSLRLSCAASGSIFYNYGMAWYRHAPGKERELVAAIRASGDSTYYADSVKGRFTISRDNAKNTVYLQMNSLKPEDTEVYYCAARPNQSYYGLYYYWGQGTQVTVSS | low polyreactivity
7 | QVQLVESGGGLVQAGGSLRLSCAASGSTFYIYAMGWYRQAPGKERELVAAINWRTGSTYYADSVKGRFTISRDNAKNTVYLQMNSLKPEDTAVYYCNAYTKHWSYWGQGTQVTVSS | high polyreactivity
8 | QVQLVESGGGLVQAGGSLRLSCAASGRILWYYAMGWYRQAPGKERELVASISWSGGRTYYADSVKGRFTISRDNAKNTVYLQMNSLKPEDTAVYYCAAQLTRWRKPGDMEYWGQGTQVTVSS | high polyreactivity
9 | QVQLVESGGGLVQAGGSLRLSCAASGFIFRGYTMGWYRQAPGKERELVAAITTTSSTYYADSVKGRFTISRDNAKNTVYLQMNSLKPEDTAVYYCAALFYRYGYLYNYWGQGTQVTVSS | high polyreactivity
10 | QVQLVESGGGLVQAGGSLRLSCAASGRTFEANAMGWYRQAPGKERELVASISRSGGNTYYADSVKGRFTISRDNAKNTGYLQMNSLKPEDTAVYYCAARFRVGQRRFNYWGQGTQVTVSS | high polyreactivity
11 | QVQLVESGGGLVQAAGSLRLSCAASGYTLAGNAMGWYRQSPGIERELVAAIDWNGGSTTYADSVKGRFTISRDNAKNTVYLQMNSLKPEDSAVYYCNVDLGVNGDYWGQGWQVTVSS | low polyreactivity
12 | QVQLVESGVGLVQAGGSLRLSCAASGSIFLRNDMAWYRQAPGKERELVAGISSVGSTYYADSVKGRFTISRDNAKNTVYLQMNSLKPEDTAVYYCAAERWGNPTDYQFWRPYDYWGQGTQVTVSS | low polyreactivity
13 | QVQLVESGGGLVQAGGSLRLSCAASGSIFSQYAMGWYRQAPGKERELVAAITYGGGSTYYADSVKGRFTISRDNAKNTVYLQMNCLKAEDTALYYCAKEFKYWGYPYDYWGQGTQVTVSS | low polyreactivity
14 | QVQLVESGGGLVQAGGSLRLSCAASGGTFRGYVMGWYIQAPGKERELVAAISYSGGTTYYADSVKGRFTISRDNAKNTVYLQMNSLKPEDTAVYYCNKGYRRYEDGATPGYGYWGQGTQVTVSS | high polyreactivity
15 | QVQLVESGGGLVQAGGSLRLSCAPSAGTFSPYDMGWSRQSPGKQRELVASITGSGGSTYFADSVKGRFTISRGNAKNTVYLQMNSLKPEDTAVYYCDAQGYWTYWPYLLRLYDYWGQGTQVTVSS | low polyreactivity
16 | QVQLVESGGGLVQAGGSLRLSCAASGSIFYLYAMGWYRQAPGKERELVAAITSIGGSTYADSVKGRFTISRDNAKNTVYLQMNSLKPEDTAVYYCNADGLYEKWGPWTVPYYYWGQGTQVTVSS | low polyreactivity
17 | QVQLVESGGGLVQAGGSLRLSCAASGGNFVFNAMGWYRQAPGKERELVAVITYSGGRTYYADSVKGRFTISRDNAKNTVYLQMNSLKPEDTAVYYCNARYGYPLGHSIYYYWGQGTQVTVSS | low polyreactivity
18 | QVQLVESGGGLVQAGGSLRLSCAASGRTFNWNAMGWYRQAPGKERELVAAITSGGSTYNADSVKGLFTISRDNAKNTVYLQMNSLKPEDTAVYYCAGRINFYRSKYYYWGQGTQVTVSS | high polyreactivity
19 | QVQLVESGGGLVQAGGSLRLSCAASGRTFPGNAMGWSRQAPGKERELVATITWSSGRTHYADSVKGRFTISRDNAKNTVYLQMNSLKPEDTAVYYCAAKWIVAVGGFYYWGQGTQVTVSS | low polyreactivity
20 | QVQLVESGGGLVQAGGSLRLSCAASGRTFSFYAMGWYRPAPGKERELVAAISSGTRTYYADSVKGRFTISRDNAKNTFYLQMNSLKPEDTAVYYCAARPKWTASWYYYWGQGTQVTVSS | high polyreactivity
21 | QVQLVESGGGLVQAGGSLRLSCAASGRTFTVYTMGWYRQAPGKERELVAVISTGGRTYYADSVKGRFTISRDNAMNTVYLQMNSLKPEDTAVYYCAAKFTREYYWGQGTQVTVSS | high polyreactivity
22 | QVQLVESGGGLGQAGGSLRLSCAASGSIFPEYVMGWNRQAPGKERELVAAISWSGGSTYYADSVKGRFTISRDNAKNPVFLQMNSLKPEDTAVYYCNRVPSWRIDYDYWGQGTQVTVSS | low polyreactivity

Row | Sequence | polyreactivity (PSR sort gate)
23 | QVQLVESGGGLVQAGGRLRLSCAASGSTIKFNAMGWYRQAPGKERELVAAISRGGRTNYADSVKGRFTISRDNAKYTVYLQMNSLKPEDTAVYKCAKDVAGLFHVGALYYYWGQGTQVTVSS | low polyreactivity
24 | QVQLVESGGGLVQAGGSLRLSCAASGQTFPFYTKGWYRQAPGKERELVGAISRRGGSTYYADSVKGRFTISRDNAKYTVYLQMKSLKPEDTAVYYCAADKYSWYDYWGQGTQVTVSS | low polyreactivity
25 | QVQLVESGGGLVQAGGSLRLSCASSGSIFGGNAMGWYRQAPGKERELVAAITQSGDRTYYADSVKGRFTISRDNAKNTVYLQMNSLKPEDTAVYYCAARSPRKYGSIGYYWGQGTEVTVSS | high polyreactivity
26 | QVQLVESGGGLVQAGGSLRLSCAASGSIFAVYAMGWYRQAPGKERELVAASSTDYAESVKGRFTISRDNAKNTVFLQLNRLKPEDTAVYYCAKVGFGIPGGFYYWGQGTQVTVSS | low polyreactivity
27 | QVQLVESGGGLVQAGGSLRLSCAASGSTFGSNAMGWYRQAPGKERELVAAITNGGSTNYADSVKGRFTISRDNAKNTVYLQMHSLKPEDTAVYYCNADPQQSKLWTYFFGFPGYYWGQGTQVTVSS | low polyreactivity
28 | QVQLVESGGGLVQAGGSLRLSCAASGSILRLYVMGWYRQAPGKERELVADISDRGGSTYYADSVKGRFTISRDNAKNTVYLQLNSLKPEDTAVYYCDKDSETAGATYTEYDYWGQGTQVTVSS | low polyreactivity
29 | QVQLVESGGGLVQAGGSLRLSSAASGRIFWTNAMGWYRQAPGKERELVAGITWRGGSTYYADSVKGRFTISRDNAKNTVSLQMNSLKPEDTAVYYCASRQGWYSGFDYWGQGTQVTVSS | high polyreactivity
30 | QVQLVESGGGLVQAGGSLRLSCAASGSIFRLNVMGWYRQAPGKERELVAVITGSGTRTNYADSVKGRFTISRDNAKNTVYLQMNSLKPEDTAVYYCNRVTTPTVTYGYGKMDYWGHGTQVTVSS | high polyreactivity
31 | QVQLVESGGGLVQAGGSLRLSCAASGFTFFTNAMGWYRQAPGKERELVATITSNGSTNYADSVKGRFTISRDNAKNTVYLQMISLKPEDTAVYYCAADQDSVSMDYWGQGTQVTVSS | low polyreactivity
32 | QVQLVESGGGLVQAGGRLRLSCAPSGLIFYGYAMGWYRQAPGKERELVAAISGSGGRTYYADSVKGRYTISRDNAKNTVYLEMNSLKPEDSAVYYCAGKVPRFGAPGVNYWGQGTQVTVSS | high polyreactivity
33 | QVQLVESGGGLVQAGGSLRLSCAASGRTFVDYVMGWYRQAPGKERELVAAISRSGSTYYADSVKGRFTISRDNAKNTVYLQMNSLKPEDTAVYYCNVEYLRTYYILSDYWGQGTQVTVSS | low polyreactivity
34 | QVQLVESGGGLVQAGGSLRLSCAASGRTIDPNAMGWYRQAPGKERELVAAISRTGVRTYYADSVMGRFTISRDNAKNTVYLQMNSLKPEDTAVYYCNRYGARSNDYWGQGTQVPVSS | low polyreactivity
35 | QVHLVESGGVLVQAGGRLRLSCAAYGNIIGFNAMGWYRQAPGTERELVAAINSGGSTYYPDSVKGRFTISRDNAKNSVYLQMNSLKPEDSAVYYCAARVRIRGGGYDDWGQGTQVTVSS | high polyreactivity
36 | QVQLVESGGGLVQAGGSLRLSCAASGRIFVAYAMGWYRQAPGKERELVAAITWSGTSTYADSVKGRFTISRDNAKNTVYLQMNSLKPEDTAVYYCAKKAIVSDQWDKYDYWGQGTQVTVSS | low polyreactivity
37 | QVQLVESGGGLVQAGGSLRLSCAASGFTFYYYVMGWSRQAPGKERELVAAITRSGGSTYYADSVKGRFTISRDNAKNTVYLQMNSLKPEDTAVYYCNAYVPPKAASAAYDYWGQGTQVTVSS | high polyreactivity
38 | QVQLVESGGGLVQAGGSLRLSCAASGFTFEYNALGWYRQAPGKERELVAAISSGGRTNYADSVKGRFTISRDNAKNTVYLQMNSLKPEDTAVYYCAKRLGVRPAFYYWGQGTLVTVSS | high polyreactivity
39 | QVQLVESGGGLVQAGGSLRLSCAASGIILDRNAMGWYRQAPGKERELDAAINSIGGSTYYADSVKGRFTISRDNAKNTVYLQMNSLKPEDTAVYYCAAPSTSSYYWGQGTQVTVSS | low polyreactivity
40 | QVQLVESGGGLLQAGGSLRLSCAASGYTFASNAMGWYRQAPGKERELVAAITRGGSTNYADSVKGRFTISRDNAKNTVYLQMNSLKPEDTAVYYCAAPRYRHTRKGGYWGQGTQLTVSS | low polyreactivity
41 | QVQLVESGGGLVQAGGSLRISCAASGFTFRNYAMGWYRQAPGKEREFVASISFAGGRTYYADSVKGRFTISRDNAKNTVYLQMNSLKPEDTAVYYCAKKSYSKYDYWGQGTQVTVSS | high polyreactivity
42 | QVQLVESGGGLVQAGGSLRLSCAASGIIFGLYAMGWYRQAPGKERELVAAITRSGGRTYYADSVKGRFTISRDNAKNTVYFQMNSLKPEDTAVYFCAADASGHSYDYWGQGTEVTVSS | high polyreactivity
43 | QVQLVESGGGLVQAGGSLRLSCAASGRIIKPYAMGWYRQAPGKERELVAAISQSGGRTYYADSVKGRFTISRDNAKNTVYLQMNSLKPEDTAVYYCATRYVSSFGLHAQVWSYYYWGQGTQVTVSS | high polyreactivity
